In the supplement of paper PMC9112550, “Optimization of the antimicrobial peptide Bac7 by deep mutational scanning” (BMC Biology, 2022):

Tested on: Escherichia coli TOP10
Experiment: shrunken log2 fold change of peptide-encoding DNA abundance (4.5 h post-induction vs induction); higher = less antimicrobial activity (less host growth inhibition)
Conditions: time post-induction: 4.5 h; library: site-saturation at positions 5, 18, 19, 20
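Also: peptides expressed intracellularly from a pBAD plasmid library in pooled LB shake-flask culture, induced with 0.3% L-arabinose, DNA abundance read by NGS, three biological replicates, DESeq2 with apeglm shrinkage.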

In order of rising “shrunken log2 fold change” value:
1. RRIRNRPPRLPRPRPRPHLLPRP  -1.08
2. RRIRQRPPRLPRPRPRPLNTPRP  -0.937
3. RRIRIRPPRLPRPRPRPWAHPRP  -0.923
4. RRIRYRPPRLPRPRPRPWIAPRP  -0.791
5. RRIRLRPPRLPRPRPRPNHNPRP  -0.726
6. RRIRYRPPRLPRPRPRPTNKPRP  -0.699
7. RRIRERPPRLPRPRPRPIWKPRP  -0.644
8. RRIRYRPPRLPRPRPRPHVMPRP  -0.644
9. RRIRSRPPRLPRPRPRPHVIPRP  -0.6
10. RRIRYRPPRLPRPRPRPTYIPRP  -0.58
11. RRIRCRPPRLPRPRPRPSMKPRP  -0.567
12. RRIRFRPPRLPRPRPRPAYMPRP  -0.564
13. RRIRIRPPRLPRPRPRPGNCPRP  -0.549
14. RRIRHRPPRLPRPRPRPVTMPRP  -0.513
15. RRIRWRPPRLPRPRPRPWAYPRP  -0.502
16. RRIRFRPPRLPRPRPRPWKQPRP  -0.469
17. RRIRSRPPRLPRPRPRPLHHPRP  -0.465
18. RRIRFRPPRLPRPRPRPNSKPRP  -0.464
19. RRIRYRPPRLPRPRPRPNFRPRP  -0.425
20. RRIRLRPPRLPRPRPRPYQRPRP  -0.393
21. RRIRLRPPRLPRPRPRPFFNPRP  -0.359
22. RRIRYRPPRLPRPRPRPVHNPRP  -0.353
23. RRIRCRPPRLPRPRPRPAYTPRP  -0.305
24. RRIRQRPPRLPRPRPRPQKIPRP  -0.29
25. RRIRQRPPRLPRPRPRPRSYPRP  -0.286
26. RRIRRRPPRLPRPRPRPWCQPRP  -0.26
27. RRIRYRPPRLPRPRPRPRHCPRP  -0.251
28. RRIRNRPPRLPRPRPRPIKSPRP  -0.245
29. RRIRVRPPRLPRPRPRPMFKPRP  -0.24
30. RRIRNRPPRLPRPRPRPPCTPRP  -0.234
31. RRIRSRPPRLPRPRPRPDNGPRP  -0.232
32. RRIRFRPPRLPRPRPRPNIWPRP  -0.224
33. RRIRHRPPRLPRPRPRPHEEPRP  -0.206
34. RRIRDRPPRLPRPRPRPRFLPRP  -0.201
35. RRIRLRPPRLPRPRPRPFSRPRP  -0.199
36. RRIRLRPPRLPRPRPRPQYIPRP  -0.189
37. RRIRFRPPRLPRPRPRPEEDPRP  -0.185
38. RRIRIRPPRLPRPRPRPNEYPRP  -0.182
39. RRIRERPPRLPRPRPRPYHFPRP  -0.177
40. RRIRPRPPRLPRPRPRPCVMPRP  -0.162
41. RRIRLRPPRLPRPRPRPCAQPRP  -0.161
42. RRIRHRPPRLPRPRPRPNDGPRP  -0.134
43. RRIRVRPPRLPRPRPRPHLEPRP  -0.133
44. RRIRCRPPRLPRPRPRPFFCPRP  -0.132
45. RRIRIRPPRLPRPRPRPWVSPRP  -0.119
46. RRIRIRPPRLPRPRPRPLTVPRP  -0.114
47. RRIRRRPPRLPRPRPRPVFKPRP  -0.0974
48. RRIRWRPPRLPRPRPRPQYAPRP  -0.0905
49. RRIRTRPPRLPRPRPRPYRHPRP  -0.0901
50. RRIRNRPPRLPRPRPRPFWDPRP  -0.0775
51. RRIRERPPRLPRPRPRPCNVPRP  -0.0745
52. RRIRFRPPRLPRPRPRPKEKPRP  -0.0715
53. RRIRQRPPRLPRPRPRPQYWPRP  -0.0582
54. RRIRTRPPRLPRPRPRPNERPRP  -0.0561
55. RRIRRRPPRLPRPRPRPYANPRP  -0.0552
56. RRIRDRPPRLPRPRPRPCVYPRP  -0.0478
57. RRIRYRPPRLPRPRPRPDACPRP  -0.045
58. RRIRMRPPRLPRPRPRPGWQPRP  -0.032
59. RRIRHRPPRLPRPRPRPCYWPRP  -0.026
60. RRIRNRPPRLPRPRPRPQFFPRP  -0.0257
61. RRIRDRPPRLPRPRPRPVVQPRP  -0.0248
62. RRIRDRPPRLPRPRPRPFTIPRP  -0.0247
63. RRIRPRPPRLPRPRPRPHRLPRP  -0.0226
64. RRIRHRPPRLPRPRPRPCGRPRP  -0.0197
65. RRIRERPPRLPRPRPRPANDPRP  -0.0189
66. RRIRKRPPRLPRPRPRPMMIPRP  -0.0134
67. RRIRRRPPRLPRPRPRPVCKPRP  -0.012
68. RRIRQRPPRLPRPRPRPGDIPRP  -0.0112
69. RRIRCRPPRLPRPRPRPNGEPRP  -0.0109
70. RRIRHRPPRLPRPRPRPFYSPRP  -0.00674
71. RRIRFRPPRLPRPRPRPMADPRP  -0.00574
72. RRIRPRPPRLPRPRPRPRIHPRP  -0.00548
73. RRIRLRPPRLPRPRPRPCAVPRP  -0.00495
74. RRIRHRPPRLPRPRPRPEADPRP  -0.00192
75. RRIRQRPPRLPRPRPRPWKKPRP  -0.000921
76. RRIRYRPPRLPRPRPRPYIRPRP  -1.92e-05
77. RRIRKRPPRLPRPRPRPIVEPRP  0.00111
78. RRIRLRPPRLPRPRPRPGLSPRP  0.00141
79. RRIRCRPPRLPRPRPRPIVKPRP  0.0118
80. RRIRPRPPRLPRPRPRPDQTPRP  0.0118
81. RRIRSRPPRLPRPRPRPSAIPRP  0.0168
82. RRIRPRPPRLPRPRPRPWKCPRP  0.0176
83. RRIRTRPPRLPRPRPRPMYYPRP  0.0219
84. RRIRVRPPRLPRPRPRPFVMPRP  0.0296
85. RRIRNRPPRLPRPRPRPAQEPRP  0.0303
86. RRIRERPPRLPRPRPRPNWAPRP  0.0312
87. RRIRSRPPRLPRPRPRPVSSPRP  0.0316
88. RRIRKRPPRLPRPRPRPGLHPRP  0.0334
89. RRIRWRPPRLPRPRPRPVKSPRP  0.0342
90. RRIRNRPPRLPRPRPRPCGEPRP  0.0369
91. RRIRHRPPRLPRPRPRPTFGPRP  0.0378
92. RRIRHRPPRLPRPRPRPGNQPRP  0.0401
93. RRIRTRPPRLPRPRPRPTMQPRP  0.0459
94. RRIRARPPRLPRPRPRPKTAPRP  0.0481
95. RRIRCRPPRLPRPRPRPAMQPRP  0.0643
96. RRIRERPPRLPRPRPRPNAPPRP  0.0774
97. RRIRKRPPRLPRPRPRPPEQPRP  0.0815
98. RRIRQRPPRLPRPRPRPIGNPRP  0.0843
99. RRIRQRPPRLPRPRPRPPTDPRP  0.0902
100. RRIRVRPPRLPRPRPRPVPWPRP  0.0916
101. RRIRFRPPRLPRPRPRPMPSPRP  0.0917
102. RRIRARPPRLPRPRPRPLMVPRP  0.0926
103. RRIRLRPPRLPRPRPRPVDVPRP  0.0939
104. RRIRMRPPRLPRPRPRPKVCPRP  0.0971
105. RRIRFRPPRLPRPRPRPMGCPRP  0.125
106. RRIRCRPPRLPRPRPRPGMCPRP  0.125
107. RRIRMRPPRLPRPRPRPMVTPRP  0.131
108. RRIRTRPPRLPRPRPRPEEMPRP  0.133
109. RRIRRRPPRLPRPRPRPSRSPRP  0.139
110. RRIRWRPPRLPRPRPRPLDMPRP  0.14
111. RRIRDRPPRLPRPRPRPMWMPRP  0.149
112. RRIRERPPRLPRPRPRPATKPRP  0.156
113. RRIRPRPPRLPRPRPRPGDEPRP  0.156
114. RRIRLRPPRLPRPRPRPPLLPRP  0.158
115. RRIRGRPPRLPRPRPRPCVLPRP  0.158
116. RRIRARPPRLPRPRPRPSRIPRP  0.163
117. RRIRDRPPRLPRPRPRPLYYPRP  0.176
118. RRIRWRPPRLPRPRPRPNAEPRP  0.181
119. RRIRIRPPRLPRPRPRPVSPPRP  0.188
120. RRIRQRPPRLPRPRPRPTGWPRP  0.19
121. RRIRERPPRLPRPRPRPMAVPRP  0.19
122. RRIRGRPPRLPRPRPRPLNPPRP  0.215
123. RRIRTRPPRLPRPRPRPWLEPRP  0.218
124. RRIRKRPPRLPRPRPRPEEFPRP  0.227
125. RRIRMRPPRLPRPRPRPICGPRP  0.237
126. RRIRGRPPRLPRPRPRPMLPPRP  0.242
127. RRIRARPPRLPRPRPRPLNWPRP  0.245
128. RRIRRRPPRLPRPRPRPILSPRP  0.246
129. RRIRHRPPRLPRPRPRPRGDPRP  0.263
130. RRIRFRPPRLPRPRPRPPGFPRP  0.268
131. RRIRVRPPRLPRPRPRPRFPPRP  0.285
132. RRIRSRPPRLPRPRPRPTANPRP  0.293
133. RRIRWRPPRLPRPRPRPIFAPRP  0.329
134. RRIRKRPPRLPRPRPRPFPPPRP  0.33
135. RRIRRRPPRLPRPRPRPRCEPRP  0.342
136. RRIRMRPPRLPRPRPRPDQAPRP  0.357
137. RRIRSRPPRLPRPRPRPMPPPRP  0.435
138. RRIRKRPPRLPRPRPRPPSLPRP  0.46
139. RRIRDRPPRLPRPRPRPVGSPRP  0.519
140. RRIRRRPPRLPRPRPRPTWWPRP  0.57
141. RRIRLRPPRLPRPRPRPVDRPRP  0.584
142. RRIRGRPPRLPRPRPRPQPGPRP  0.606
143. RRIRGRPPRLPRPRPRPCAKPRP  0.661
144. RRIRKRPPRLPRPRPRPVDQPRP  0.766
145. RRIRWRPPRLPRPRPRPDCGPRP  0.885
146. RRIRGRPPRLPRPRPRPPEGPRP  1.15
147. RRIRGRPPRLPRPRPRPHAPPRP  1.23
148. RRIRGRPPRLPRPRPRPPAGPRP  1.37
149. RRIRGRPPRLPRPRPRPSASPRP  1.77
150. RRIRGRPPRLPRPRPRPESEPRP  2
